We go through 2 molecules from patent US20150038430A1 (published 2015).

Bridge positions count the residues as written; N and C are the ends.

Targets include Bcl-xL (UniProt Q07817 1-212); Mcl-1; Bcl-2.
What all share (experiment): MS-based binding affinity

Chain of Bcl-xL (Q07817 1-212): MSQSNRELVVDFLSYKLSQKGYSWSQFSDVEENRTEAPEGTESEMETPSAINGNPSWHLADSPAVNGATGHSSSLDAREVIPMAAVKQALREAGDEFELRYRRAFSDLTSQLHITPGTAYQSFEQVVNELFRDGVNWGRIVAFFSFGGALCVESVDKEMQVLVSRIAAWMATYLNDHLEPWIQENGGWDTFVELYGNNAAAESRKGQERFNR

B1: SP-4 (BIM-BH3 peptidomimetic macrocycle, Ac-IWIAQELR$IGD$FNAYYARR-NH2) (peptide)
peptide: Ac-IWIAQELRXIGDXFNAYYARR-NH2
modifications: staple 9-13; not fully specified (residues 9, 13); printed as Ac-IWIAQELR$IGD$FNAYYARR-NH2
For orientation: Kd means the constant that tells how readily two partners part at equilibrium. On to B1, for which, in the test with Bcl-xL, the Kd is less than 100 nM.

B2: SP-4 BIM Stapled (peptide)
peptide: Ac-IWIAQELRXIGDXFNAYYARR-NH2
modifications: staple 9-13; not fully specified (residues 9, 13); printed as Ac-IWIAQELR$IGD$FNAYYARR-NH2
For B2, the Kd with Mcl-1 and in the test with Bcl-2 was less than 100 nM throughout.
